Where a chain is given by its changes, count along the chain named.
How the values were obtained:
[1] = target: T1, recombinant, soluble human ASGR-1 (human, UniProt P07306 62-291); experiment: Octet BLI dissociation, pH 5.6 plus calcium
T1 construct: biotinylated in the binning assay; also called soluble huASGR-1; Soluble ASGR-1 (Amgen)
T1 sequence: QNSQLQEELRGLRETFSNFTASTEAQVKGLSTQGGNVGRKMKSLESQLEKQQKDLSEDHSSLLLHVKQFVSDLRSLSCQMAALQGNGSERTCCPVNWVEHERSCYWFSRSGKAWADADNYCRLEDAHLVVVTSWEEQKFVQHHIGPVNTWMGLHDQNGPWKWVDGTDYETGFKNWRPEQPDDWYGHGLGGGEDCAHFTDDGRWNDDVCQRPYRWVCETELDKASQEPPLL
Procedure, shortened: (§1)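 Antibodies were captured on anti-human Fc biosensors, and soluble ASGR-1 (6 ug/ml) was associated for 2 min in Tris buffer containing 1 mM CaCl2 at pH 7.4, followed by 10 min dissociation under each test condition. The signal at the end of association was set as 100%. Percent ASGR-1 still bound after 1 min of dissociation was compared with the pH 7.4 plus calcium control, and >10% extra dissociation was scored as sensitive.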

[2] = target: T1, recombinant, soluble human ASGR-1; experiment: Octet BLI dissociation, pH 7.4 minus calcium
Procedure, shortened: as §1

[3] = target: T1, recombinant, soluble human ASGR-1; experiment: Octet BLI dissociation, pH 5.6 minus calcium
Procedure, shortened: as §1

B1: 190G11 (antibody, V domains shown)
VH: QVQLVESGGGVVQPGRSLRLSCAASGFTFSIYGMHWVRQAPGKGLEWVAVIWYDGSNKNYADSVKGRFTISRDNSKNTLYLQMNSLRAEDTAVYYCARDQGVGYDGLDVWGQGTTVTVSS
VL: DIQMTQSPSSLSASVGDRVTITCRTSQGIGNYLAWFQQKPGKAPKSLLYKASSLQSGVPSKFSGSGSGTDFTLTISSLQPEDFATYYCQQYMTYPLTFGGGTKVEIK
notes: hybridoma mAb
% Change Compared to pH 7.4 + Calcium [1]: -8%
% Change Compared to pH 7.4 + Calcium [2]: -2%
% Change Compared to pH 7.4 + Calcium [3]: -5%

B2: 192E4 (antibody, V domains shown)
VH: B1 VH with I31S, A61V, K65R, Q100R, G101S, L107M
VL: B1 VL with T25A, L48I, K50V, A51V, K61R, Q90R, M92D, L96F, G100P, E105D
notes: hybridoma mAb
% Change Compared to pH 7.4 + Calcium [1]: -9%
% Change Compared to pH 7.4 + Calcium [2]: -2%
% Change Compared to pH 7.4 + Calcium [3]: -8%

B3: 219H1 (antibody, V domains shown)
VH: B1 VH with I31R, N59H, A88G, Q100R, D105N, L107M
VL: DIQMTQSPSSQSASVGDRVTITCRASQGISNYLDWFQQKPGKAPKSLIYSASNLQSGVPSKFSGSRSGTDFTLTISSLQPEDFATYYCQHYSNYPLTFGGGTKVEIK
notes: hybridoma mAb
% Change Compared to pH 7.4 + Calcium [1]: -3%
% Change Compared to pH 7.4 + Calcium [2]: 2%
% Change Compared to pH 7.4 + Calcium [3]: 1%

B4: 194B7 (antibody, V domains shown)
VH: B1 VH with I31S, Q100R, G101S, V102K, L107M
VL: B3 VL with Q11L, N31K, D34A, S50G, N53R, R66G, S92L, G100Q, K103R, V104L
notes: hybridoma mAb
% Change Compared to pH 7.4 + Calcium [1]: -4%
% Change Compared to pH 7.4 + Calcium [2]: 1%
% Change Compared to pH 7.4 + Calcium [3]: -4%

B5: 197G3 (antibody, V domains shown)
VH: B1 VH with A23V, I31S, Y32H, Q100P, G101S, L107M
VL: DIQMTQSPSSLSASVGDRVTITCRASQGIGNHLAWFQQKPGKAPKSLIYAASSLQSGVPSKFSGSRSGTDFSLTISSLQPEDFATYYCQQYSNYPVTFGPGTKVDIK
notes: hybridoma mAb
% Change Compared to pH 7.4 + Calcium [1]: -3%
% Change Compared to pH 7.4 + Calcium [2]: 2%
% Change Compared to pH 7.4 + Calcium [3]: -3%

B6: 74C8 (antibody, V domains shown)
VH: B1 VH with I31S, Q100G, G101S, V102Y, V109Y, T115L
VL: DIQMTQSPSSLSASVGDRVTITCRASQGIGKYLAWFQQKPGKAPKSLIYTTSNLQSGAPSKFSGSGSGTDFTLTISSLQYEDFATYYCQQYSNYPLTFGGGTKVEIN
notes: hybridoma mAb
% Change Compared to pH 7.4 + Calcium [1]: -7%
% Change Compared to pH 7.4 + Calcium [2]: 1%
% Change Compared to pH 7.4 + Calcium [3]: -3%

B7: 74G6 (antibody, V domains shown)
VH: B1 VH with I31S, Q100G, G101S, V102Y, V109Y, T115L
VL: B6 VL with N53S
notes: hybridoma mAb
% Change Compared to pH 7.4 + Calcium [1]: -9%
% Change Compared to pH 7.4 + Calcium [2]: 1%
% Change Compared to pH 7.4 + Calcium [3]: -4%

B8: 190F12 (antibody, V domains shown)
VH: B1 VH with S30R, I31N, Y53F, K58D, N59Y, Y80S, Q100R, G101S
VL: B5 VL with N31K, H32Y, R66G, S72T, E81D, Q90R, S92D, N93T, V96F
notes: hybridoma mAb
% Change Compared to pH 7.4 + Calcium [1]: -6%
% Change Compared to pH 7.4 + Calcium [2]: -1%
% Change Compared to pH 7.4 + Calcium [3]: -6%

B9: 213B3 (antibody, V domains shown)
VH: B1 VH with I31S, Q100R, G101T, L107F, V109I, T115M
VL: DIQMTQSPSSLSASVGDRVTITCRASQGIGKYLAWFQQKPGKAPKSLISAASSVLSGVPSKFSGSGSGTDFTLTISSLQPEDFATYYCQKYDTYPFTFGPGTKVDIK
notes: hybridoma mAb
% Change Compared to pH 7.4 + Calcium [1]: -7%
% Change Compared to pH 7.4 + Calcium [2]: -1%
% Change Compared to pH 7.4 + Calcium [3]: -3%

B10: 192H10 (antibody, V domains shown)
VH: B1 VH with I31S, V93M, T115S
VL: B1 VL with T25A, N31K, L48I, K50A, S67Y, D82N, M92S
notes: hybridoma mAb
% Change Compared to pH 7.4 + Calcium [1]: -5%
% Change Compared to pH 7.4 + Calcium [2]: 0%
% Change Compared to pH 7.4 + Calcium [3]: -4%

B11: 191A10 (antibody, V domains shown)
VH: B1 VH with I31S, V93M, T115S
VL: B1 VL with T25A, N31K, L48I, K50A, S67Y, D82N, T85I, M92S
notes: hybridoma mAb
% Change Compared to pH 7.4 + Calcium [1]: -5%
% Change Compared to pH 7.4 + Calcium [2]: 0%
% Change Compared to pH 7.4 + Calcium [3]: -5%

B12: 191G1 (antibody, V domains shown)
VH: B1 VH with I31S, K58E, N59H, Q100R, D105Y
VL: B1 VL with T25A, G30S, L48I, K50A, Q90H, M92L
notes: hybridoma mAb
% Change Compared to pH 7.4 + Calcium [1]: -15%
% Change Compared to pH 7.4 + Calcium [2]: -10%
% Change Compared to pH 7.4 + Calcium [3]: -11%

B13: 194C1 (antibody, V domains shown)
VH: B1 VH with I31S, K58E, N59H, D99N, Q100R, D105Y
VL: B1 VL with T25A, G30S, L48I, K50A, Q89L, Q90H, M92L
notes: hybridoma mAb
% Change Compared to pH 7.4 + Calcium [1]: -12%
% Change Compared to pH 7.4 + Calcium [2]: -7%
% Change Compared to pH 7.4 + Calcium [3]: -8%

B14: 192C8 (antibody, V domains shown)
VH: B1 VH with I31S, K58E, N59H, T69M, Q100R, D105Y, L107M
VL: B1 VL with T25A, G30S, L48I, K50A, Q90H, M92L
notes: hybridoma mAb
% Change Compared to pH 7.4 + Calcium [1]: -14%
% Change Compared to pH 7.4 + Calcium [2]: -9%
% Change Compared to pH 7.4 + Calcium [3]: -14%

B15: 192G8 (antibody, V domains shown)
VH: B1 VH with I31S
VL: B1 VL with M92I
notes: hybridoma mAb
% Change Compared to pH 7.4 + Calcium [1]: -5%
% Change Compared to pH 7.4 + Calcium [2]: -1%
% Change Compared to pH 7.4 + Calcium [3]: -6%

B16: 197F2 (antibody, V domains shown)
VH: B1 VH with I31S
VL: B1 VL with T5I, A51T, C88F, M92I
notes: hybridoma mAb
% Change Compared to pH 7.4 + Calcium [1]: -6%
% Change Compared to pH 7.4 + Calcium [2]: 0%
% Change Compared to pH 7.4 + Calcium [3]: -6%

B17: 192C10 (antibody, V domains shown)
VH: B1 VH with A24S, S30R, I31N, E46K, Y53F, K58D, N59Y, Y80S, Q100R, G101S
VL: B9 VL with S49Y, V54L, L55Q, E81D, K90R, I106F
notes: hybridoma mAb
% Change Compared to pH 7.4 + Calcium [1]: -6%
% Change Compared to pH 7.4 + Calcium [2]: -1%
% Change Compared to pH 7.4 + Calcium [3]: -6%

B18: 190H9 (antibody, V domains shown)
VH: B1 VH with S30R, I31N, Y53F, K58D, N59Y, Y80S, Q100R, G101S
VL: B9 VL with P44L, S49Y, V54L, L55Q, E81D, K90R
notes: hybridoma mAb
% Change Compared to pH 7.4 + Calcium [1]: -6%
% Change Compared to pH 7.4 + Calcium [2]: -1%
% Change Compared to pH 7.4 + Calcium [3]: -7%

B19: 197B6 (antibody, V domains shown)
VH: B1 VH with I31S, T78M, V93M, T115S
VL: B1 VL with T25A, N31K, L48I, K50G, D82N, M92S
notes: hybridoma mAb
% Change Compared to pH 7.4 + Calcium [1]: -8%
% Change Compared to pH 7.4 + Calcium [2]: -1%
% Change Compared to pH 7.4 + Calcium [3]: -7%

B20: 191G12 (antibody, V domains shown)
VH: B1 VH with I31S
VL: B1 VL with M92I, T102S
notes: hybridoma mAb
% Change Compared to pH 7.4 + Calcium [1]: -5%
% Change Compared to pH 7.4 + Calcium [2]: -2%
% Change Compared to pH 7.4 + Calcium [3]: -6%

B21: 196C7 (antibody, V domains shown)
VH: B1 VH with I31S, K58E, N59H, Q100R, D105Y
VL: B1 VL with T25A, S26N, G28A, G30S, L48I, K50A, Q90H, M92L
notes: hybridoma mAb
% Change Compared to pH 7.4 + Calcium [1]: -12%
% Change Compared to pH 7.4 + Calcium [2]: -8%
% Change Compared to pH 7.4 + Calcium [3]: -12%

B22: 197E11 (antibody, V domains shown)
VH: B1 VH with S30R, I31N, Y53F, K58D, N59Y, Y80S, Q100R, G101S
VL: B9 VL with G30N, A34S, S49Y, L55Q, S77R, E81D, C88G, K90R
notes: hybridoma mAb
% Change Compared to pH 7.4 + Calcium [1]: -5%
% Change Compared to pH 7.4 + Calcium [2]: -1%
% Change Compared to pH 7.4 + Calcium [3]: -4%

B23: 192G6 (antibody, V domains shown)
VH: B1 VH with I31S, I51L, S56T
VL: B1 VL with Q3K
notes: hybridoma mAb
% Change Compared to pH 7.4 + Calcium [1]: -6%
% Change Compared to pH 7.4 + Calcium [2]: -1%
% Change Compared to pH 7.4 + Calcium [3]: -6%

B24: 198G3 (antibody, V domains shown)
VH: B1 VH with R19K, I31T, S56T, Y80C
VL: B1 VL with T5A, N31K, S56G
notes: hybridoma mAb
% Change Compared to pH 7.4 + Calcium [1]: -4%
% Change Compared to pH 7.4 + Calcium [2]: -1%
% Change Compared to pH 7.4 + Calcium [3]: -4%

B25: 193C7 (antibody, V domains shown)
VH: B1 VH with I31S, V93M, T115S
VL: B1 VL with T25A, N31K, L48I, K50A, M92S
notes: hybridoma mAb
% Change Compared to pH 7.4 + Calcium [1]: -8%
% Change Compared to pH 7.4 + Calcium [2]: -1%
% Change Compared to pH 7.4 + Calcium [3]: -8%

B26: 191G10 (antibody, V domains shown)
VH: B1 VH with I31S
VL: B1 VL with N31K, A51V
notes: hybridoma mAb
% Change Compared to pH 7.4 + Calcium [1]: -5%
% Change Compared to pH 7.4 + Calcium [2]: 0%
% Change Compared to pH 7.4 + Calcium [3]: -5%

B27: 191E10 (antibody, V domains shown)
VH: B1 VH with I31S, V93M, T115S
VL: B1 VL with T25A, N31K, L48I, K50A, D82N, M92S
notes: hybridoma mAb
% Change Compared to pH 7.4 + Calcium [1]: -9%
% Change Compared to pH 7.4 + Calcium [2]: -1%
% Change Compared to pH 7.4 + Calcium [3]: -9%

B28: 204G6 (antibody, V domains shown)
VH: B1 VH with A23T, I31S, Q100R, L107M
VL: B1 VL with Q3R, V19I, L48I, K50A, K61R, Q90H, M92L, T93S
notes: hybridoma mAb
% Change Compared to pH 7.4 + Calcium [1]: -11%
% Change Compared to pH 7.4 + Calcium [2]: -5%
% Change Compared to pH 7.4 + Calcium [3]: -10%
